The values that follow are results of earlier work, collected in article PMC4086743 (Amino acids, 2012).

B1: HD5: human Paneth cell α-defensin HD5 (peptide, UniProt Q01523 20-94, looked up)
Defensin alpha 5: ESLQERADEATTQKQSGEDNQDLAISFAGNGLSALRTSGSQARATCYCRTGRCATRESLSGVCEISGRLYRLCCR
modifications: Defensin-5
On to B1, for which, in the data set on chymotrypsin, the sensitivity to chymotrypsin result was “insensitive”. For the same molecule, in the data set with trypsin, the sensitivity to trypsin result is “insensitive”.

B2: proCrp4: full-length precursor of Crp4 with electronegative proregion, recombinant (protein, UniProt P28311 20-92, looked up)
pro-form: DPIQNTDEETKTEEQPGEEDQAVSISFGGQEGSALHEKSLRGLLCYCRKGHCKRGERVRGTCGIRFLYCCPRR
modifications: pro-form
For the molecule B2, in the data set on MMP7, the “resistance to proteolysis by MMP7” value is “completely resistant”.
